Source: PMC8292405, “Functional expression of the eukaryotic proton pump rhodopsin OmR2 in Escherichia coli and its photochemical characterization” (Scientific Reports, 2021)

Key:
[1] = biological target: T1, OmR2 (O. marina rhodopsin-2) (Oxyrrhis marina, UniProt A0A0B4P477); assay: absorption spectroscopy; HPLC of retinal oximes; type: binding; settings: covalent; protonated Schiff base (Lys213); 50 mM Tris-HCl pH 7.0, 1 M NaCl, 0.05% DDM
T1 construct: full-length, codon-optimized synthetic gene, C-terminal His6 tag kept; expressed in E. coli BL21(DE3) (pET21a) and in HEK293T; purified in DDM micelles
T1 sequence (A0A0B4P477 entry or part of it): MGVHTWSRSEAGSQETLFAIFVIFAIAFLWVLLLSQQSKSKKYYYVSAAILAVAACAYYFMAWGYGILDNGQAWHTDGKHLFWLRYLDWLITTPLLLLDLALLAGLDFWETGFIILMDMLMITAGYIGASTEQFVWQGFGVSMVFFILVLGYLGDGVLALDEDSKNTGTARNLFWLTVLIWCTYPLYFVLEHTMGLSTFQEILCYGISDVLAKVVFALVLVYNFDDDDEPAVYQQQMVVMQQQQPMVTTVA

Asp81 = Asp81 (UniProt position 81, YARYIDWVLTT); settings: not stated (counterion of the protonated Schiff base); cited from earlier work
Asp95 [2] = biological target: Asp95 (UniProt position 95, YARYADWLFTT); settings: not stated (counterion of the protonated Schiff base); cited from earlier work
Asp85 = Asp85 (UniProt position 98, WARYADWLFTT); settings: not stated (counterion of the protonated Schiff base); cited from earlier work
Asp100 = settings: not stated (counterion of the protonated Schiff base); cited from earlier work
Asp88 = assay: UV-vis; settings: room temperature (approx. 25 °C), 1 M NaCl, Buffer A: 50 mM Tris-HCl, 0.05% (w/v) DDM, pH adjusted by adding HCl, Unphotolysed state under room light, all-trans retinal bound with protonated Schiff base, folded (reversibility of the spectral changes was checked)
Asp97 = Asp97 (UniProt position 97, VFRYIDWLLTV); settings: not stated (counterion of the protonated Schiff base); cited from earlier work
Asp95 [3] = biological target: Asp95 (UniProt position 95, FYRYADWLLTV); settings: not stated (counterion of the protonated Schiff base); cited from earlier work

**Q.** For `CC1=C(/C=C/C(C)=C/C=C/C(C)=C/C=O)C(C)(C)CCC1` [all-trans retinal], which “absorption spectroscopy; HPLC of retinal oximes” value [1] is on record?
**A.** This indicates that OmR2 possesses all-trans retinal regardless of the light environment

**Q.** For “Acetabularia rhodopsin II (ARII) (Acetabularia acetabulum)”, which pKa (Asp81) is on record?
**A.** 2.6

**Q.** For “Archaerhodopsin-3 (AR3) (Halorubrum sodomense)”, which pKa (Asp95 [2]) is on record?
**A.** 3.1

**Q.** For “Bacteriorhodopsin (BR) (Halobacterium salinarum)”, which pKa (Asp85) is on record?
**A.** 2.6

**Q.** Which pKa (Asp100) does the source give for “Oxyrrhis marina rhodopsin-1 (OmR1, OR1) (Oxyrrhis marina)” here?
**A.** 4

**Q.** For “Oxyrrhis marina rhodopsin-2 (OmR2) (Oxyrrhis marina)”, which pKa (Asp88) is on record?
**A.** 3.0 ± 0.04

**Q.** With “Proteorhodopsin (PR, green-absorbing) (uncultured marine gamma-proteobacterium (EBAC31A08))” as the compound, how does the pKa (Asp97) read?
**A.** 7.5

**Q.** Which pKa (Asp95 [3]) does the source give for “Thermophilic rhodopsin (TR) (Thermus thermophilus)” here?
**A.** 3.4
